Test results taken from patent US20130005646A1 (Novo Nordisk, published 2013).
Starred links: 1 amine or outer side, 2 acyl side, 3 side chain; linkers in the order of their positions; H or OH if unused. Positions of bridges follow the written chain, without caps; N, C: chain ends. *: point of attachment. C20 diacid = O=C(O)CCCCCCCCCCCCCCCCCCC(=O)*; 19‑carboxyheptadecanoyl = not defined here; γGlu = O=C(O)[C@H](CCC(=O)[*:2])N[*:1]; AEEA = NCCOCCOCC(=O)O

T1: human amylin 3(a) receptor (human calcitonin receptor + RAMP-3) (human, UniProt P30988 25-474; O60896 24-148)
T1 sequence (looked up) 1: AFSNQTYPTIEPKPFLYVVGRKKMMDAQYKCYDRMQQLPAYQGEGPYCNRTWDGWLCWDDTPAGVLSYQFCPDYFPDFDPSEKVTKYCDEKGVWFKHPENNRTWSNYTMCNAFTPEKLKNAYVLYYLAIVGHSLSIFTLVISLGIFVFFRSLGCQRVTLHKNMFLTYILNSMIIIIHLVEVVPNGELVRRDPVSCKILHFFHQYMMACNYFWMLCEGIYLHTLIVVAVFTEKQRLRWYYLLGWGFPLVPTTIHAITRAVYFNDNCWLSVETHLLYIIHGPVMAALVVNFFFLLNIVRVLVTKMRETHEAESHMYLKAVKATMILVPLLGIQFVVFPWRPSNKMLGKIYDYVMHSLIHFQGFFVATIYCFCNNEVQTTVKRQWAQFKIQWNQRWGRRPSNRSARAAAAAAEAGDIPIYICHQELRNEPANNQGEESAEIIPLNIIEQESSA
T1 sequence (looked up) 2: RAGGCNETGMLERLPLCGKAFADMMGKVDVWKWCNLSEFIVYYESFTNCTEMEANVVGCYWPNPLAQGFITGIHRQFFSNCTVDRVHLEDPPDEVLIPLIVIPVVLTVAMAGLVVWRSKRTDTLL

T2: human calcitonin (a) receptor (human, UniProt P30988 25-474)
T2 sequence (looked up): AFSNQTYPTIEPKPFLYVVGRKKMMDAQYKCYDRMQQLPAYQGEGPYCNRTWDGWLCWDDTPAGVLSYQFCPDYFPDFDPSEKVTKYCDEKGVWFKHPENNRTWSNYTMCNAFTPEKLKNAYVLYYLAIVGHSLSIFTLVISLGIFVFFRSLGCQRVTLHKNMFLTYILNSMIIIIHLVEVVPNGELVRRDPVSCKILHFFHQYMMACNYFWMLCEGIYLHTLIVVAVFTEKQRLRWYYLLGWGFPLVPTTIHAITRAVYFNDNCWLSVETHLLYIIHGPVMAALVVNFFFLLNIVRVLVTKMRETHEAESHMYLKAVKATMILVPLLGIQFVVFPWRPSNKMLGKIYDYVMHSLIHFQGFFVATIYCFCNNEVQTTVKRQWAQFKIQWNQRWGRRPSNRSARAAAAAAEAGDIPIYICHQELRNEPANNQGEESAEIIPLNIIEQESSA

T3: rat calcitonin (a) receptor (rat, UniProt P32214 25-516)
T3 sequence (looked up): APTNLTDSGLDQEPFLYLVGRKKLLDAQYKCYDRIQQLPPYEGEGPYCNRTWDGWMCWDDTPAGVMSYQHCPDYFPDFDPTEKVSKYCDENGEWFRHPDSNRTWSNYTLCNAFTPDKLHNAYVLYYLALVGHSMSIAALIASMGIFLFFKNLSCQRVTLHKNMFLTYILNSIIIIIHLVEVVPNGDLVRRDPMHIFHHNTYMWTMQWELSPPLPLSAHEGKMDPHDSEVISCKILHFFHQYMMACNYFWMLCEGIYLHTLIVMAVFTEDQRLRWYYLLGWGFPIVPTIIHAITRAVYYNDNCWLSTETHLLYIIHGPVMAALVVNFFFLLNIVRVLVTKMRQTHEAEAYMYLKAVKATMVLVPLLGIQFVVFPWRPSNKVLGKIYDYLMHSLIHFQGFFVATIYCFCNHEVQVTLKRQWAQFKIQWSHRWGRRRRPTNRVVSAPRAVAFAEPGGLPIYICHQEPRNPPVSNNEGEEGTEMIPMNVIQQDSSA

T4: rat amylin 3(a) receptor (rat calcitonin(a) receptor + rat RAMP3) (rat, UniProt P32214 25-516; Q9JJ73 23-147)
T4 sequence (looked up) 1: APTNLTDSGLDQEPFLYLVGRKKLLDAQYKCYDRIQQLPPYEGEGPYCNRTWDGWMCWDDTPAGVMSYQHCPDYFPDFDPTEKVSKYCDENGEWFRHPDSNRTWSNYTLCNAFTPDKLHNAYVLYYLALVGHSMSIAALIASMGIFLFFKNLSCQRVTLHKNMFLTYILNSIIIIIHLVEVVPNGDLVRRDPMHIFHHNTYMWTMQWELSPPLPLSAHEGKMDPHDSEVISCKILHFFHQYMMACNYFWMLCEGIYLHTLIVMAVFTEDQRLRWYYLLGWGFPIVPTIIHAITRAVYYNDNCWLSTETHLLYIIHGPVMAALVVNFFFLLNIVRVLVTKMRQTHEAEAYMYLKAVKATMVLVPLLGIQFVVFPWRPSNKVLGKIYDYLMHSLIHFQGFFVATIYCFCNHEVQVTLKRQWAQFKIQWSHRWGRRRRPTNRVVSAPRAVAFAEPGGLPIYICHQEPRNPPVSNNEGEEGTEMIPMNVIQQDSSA
T4 sequence (looked up) 2: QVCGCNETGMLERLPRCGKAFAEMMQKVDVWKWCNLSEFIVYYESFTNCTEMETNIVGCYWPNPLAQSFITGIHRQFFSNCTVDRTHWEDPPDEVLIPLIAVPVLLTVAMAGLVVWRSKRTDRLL


Experiments:
Assay in all cases: cell-based or functional assay
[1] = molecular target: T1, human amylin 3(a) receptor (human …)
[2] = molecular target: T2, human calcitonin (a) receptor
[3] = molecular target: T3, rat calcitonin (a) receptor
[4] = molecular target: T4, rat amylin 3(a) receptor (rat …)

Binder | Amylin receptor human EC50 [1] [nM] | CTa receptor human EC50 [2] [nM] | CTa receptor rat EC50 [3] [nM] | Amylin receptor rat EC50 [4] [nM]
{19‑carboxyheptadecanoyl-γGlu-AEEA-AEEA}-HCNTATCATQRLAEFLHRATQELGPILPPTNVGSNTY-NH2 (disulfide 2-7; reading uncertain; also: printed as N-alpha-[2-(2-{2-[2-(2-{2-[(S)-4-Carboxy-4-(19-carboxyheptadecanoylamino)butyrylamino]ethoxy}ethoxy)acetylamino]ethoxy}ethoxy)acetyl]-[His1,Glu14,His17,Arg18,Ala19,Thr20,Gln21,Glu22,Leu23]-pramlintide) | 0.385 | 0.492 | – | –
{C20 diacid-γGlu}-KCNTATCATQRLAEFLHHSSNNFGPILPPTNVGSNTY-NH2 (disulfide 2-7; SMILES CC[C@H](C)[C@H](NC(=O)[C@@H]1CCCN1C(=O)CNC(=O)[C@H](Cc1ccccc1)NC(=O)[C@H](CC(N)=O)NC(=O)[C@H](CC(N)=O)NC(=O)[C@H](CO)NC(=O)[C@H](CO)NC(=O)[C@H](Cc1c[nH]cn1)NC(=O)[C@H](Cc1c[nH]cn1)NC(=O)[C@H](CC(C)C)NC(=O)[C@H](Cc1ccccc1)NC(=O)[C@H](CCC(=O)O)NC(=O)[C@H](C)NC(=O)[C@H](CC(C)C)NC(=O)[C@H](CCCNC(=N)N)NC(=O)[C@H](CCC(N)=O)NC(=O)[C@@H](NC(=O)[C@H](C)NC(=O)[C@@H]1CSSC[C@H](NC(=O)[C@H](CCCCN)NC(=O)CC[C@H](NC(=O)CCCCCCCCCCCCCCCCCCC(=O)O)C(=O)O)C(=O)N[C@@H](CC(N)=O)C(=O)N[C@@H]([C@@H](C)O)C(=O)N[C@@H](C)C(=O)N[C@@H]([C@@H](C)O)C(=O)N1)[C@@H](C)O)C(=O)N[C@@H](CC(C)C)C(=O)N1CCC[C@H]1C(=O)N1CCC[C@H]1C(=O)N[C@H](C(=O)N[C@@H](CC(N)=O)C(=O)N[C@H](C(=O)NCC(=O)N[C@@H](CO)C(=O)N[C@@H](CC(N)=O)C(=O)N[C@H](C(=O)N[C@@H](Cc1ccc(O)cc1)C(N)=O)[C@@H](C)O)C(C)C)[C@@H](C)O) [N-alpha-[(S)-4-Carboxy-4-(19-carboxynonadecanoylamino)butyryl]-[Glu14,His17]-pramlintide] | 0.121 | 0.107 | 0.539 | 0.188
{C20 diacid-γGlu}-HCGTATCATQRLAEFLHRSSSSFGPILPPTEVGSETY-NH2 (disulfide 2-7; SMILES CC[C@H](C)[C@H](NC(=O)[C@@H]1CCCN1C(=O)CNC(=O)[C@H](Cc1ccccc1)NC(=O)[C@H](CO)NC(=O)[C@H](CO)NC(=O)[C@H](CO)NC(=O)[C@H](CO)NC(=O)[C@H](CCCNC(=N)N)NC(=O)[C@H](Cc1c[nH]cn1)NC(=O)[C@H](CC(C)C)NC(=O)[C@H](Cc1ccccc1)NC(=O)[C@H](CCC(=O)O)NC(=O)[C@H](C)NC(=O)[C@H](CC(C)C)NC(=O)[C@H](CCCNC(=N)N)NC(=O)[C@H](CCC(N)=O)NC(=O)[C@@H](NC(=O)[C@H](C)NC(=O)[C@@H]1CSSC[C@H](NC(=O)[C@H](Cc2c[nH]cn2)NC(=O)CC[C@H](NC(=O)CCCCCCCCCCCCCCCCCCC(=O)O)C(=O)O)C(=O)NCC(=O)N[C@@H]([C@@H](C)O)C(=O)N[C@@H](C)C(=O)N[C@@H]([C@@H](C)O)C(=O)N1)[C@@H](C)O)C(=O)N[C@@H](CC(C)C)C(=O)N1CCC[C@H]1C(=O)N1CCC[C@H]1C(=O)N[C@H](C(=O)N[C@@H](CCC(=O)O)C(=O)N[C@H](C(=O)NCC(=O)N[C@@H](CO)C(=O)N[C@@H](CCC(=O)O)C(=O)N[C@H](C(=O)N[C@@H](Cc1ccc(O)cc1)C(N)=O)[C@@H](C)O)C(C)C)[C@@H](C)O) | 0.313 | 0.198 | – | –
{C20 diacid-γGlu}-HHHCNTATCATQRLAEFLVHSSNNFGPILPPTNVGSNTY-NH2 (disulfide 4-9; SMILES CC[C@H](C)[C@H](NC(=O)[C@@H]1CCCN1C(=O)CNC(=O)[C@H](Cc1ccccc1)NC(=O)[C@H](CC(N)=O)NC(=O)[C@H](CC(N)=O)NC(=O)[C@H](CO)NC(=O)[C@H](CO)NC(=O)[C@H](Cc1c[nH]cn1)NC(=O)[C@@H](NC(=O)[C@H](CC(C)C)NC(=O)[C@H](Cc1ccccc1)NC(=O)[C@H](CCC(=O)O)NC(=O)[C@H](C)NC(=O)[C@H](CC(C)C)NC(=O)[C@H](CCCNC(=N)N)NC(=O)[C@H](CCC(N)=O)NC(=O)[C@@H](NC(=O)[C@H](C)NC(=O)[C@@H]1CSSC[C@H](NC(=O)[C@H](Cc2c[nH]cn2)NC(=O)[C@H](Cc2c[nH]cn2)NC(=O)[C@H](Cc2c[nH]cn2)NC(=O)CC[C@H](NC(=O)CCCCCCCCCCCCCCCCCCC(=O)O)C(=O)O)C(=O)N[C@@H](CC(N)=O)C(=O)N[C@@H]([C@@H](C)O)C(=O)N[C@@H](C)C(=O)N[C@@H]([C@@H](C)O)C(=O)N1)[C@@H](C)O)C(C)C)C(=O)N[C@@H](CC(C)C)C(=O)N1CCC[C@H]1C(=O)N1CCC[C@H]1C(=O)N[C@H](C(=O)N[C@@H](CC(N)=O)C(=O)N[C@H](C(=O)NCC(=O)N[C@@H](CO)C(=O)N[C@@H](CC(N)=O)C(=O)N[C@H](C(=O)N[C@@H](Cc1ccc(O)cc1)C(N)=O)[C@@H](C)O)C(C)C)[C@@H](C)O) [N-alpha-[(S)-4-Carboxy-4-(19-carboxynonadecanoylamino)butyryl]-His-His-[His1,Glu14]-pramlintide] | 0.151 | 0.74 | – | –
{C20 diacid-γGlu}-ERCNTATCATQRLAEFLHHSSNNFGPILPPTNVGSNTY-NH2 (disulfide 3-8; SMILES CC[C@H](C)[C@H](NC(=O)[C@@H]1CCCN1C(=O)CNC(=O)[C@H](Cc1ccccc1)NC(=O)[C@H](CC(N)=O)NC(=O)[C@H](CC(N)=O)NC(=O)[C@H](CO)NC(=O)[C@H](CO)NC(=O)[C@H](Cc1c[nH]cn1)NC(=O)[C@H](Cc1c[nH]cn1)NC(=O)[C@H](CC(C)C)NC(=O)[C@H](Cc1ccccc1)NC(=O)[C@H](CCC(=O)O)NC(=O)[C@H](C)NC(=O)[C@H](CC(C)C)NC(=O)[C@H](CCCNC(=N)N)NC(=O)[C@H](CCC(N)=O)NC(=O)[C@@H](NC(=O)[C@H](C)NC(=O)[C@@H]1CSSC[C@H](NC(=O)[C@H](CCCNC(=N)N)NC(=O)[C@H](CCC(=O)O)NC(=O)CC[C@H](NC(=O)CCCCCCCCCCCCCCCCCCC(=O)O)C(=O)O)C(=O)N[C@@H](CC(N)=O)C(=O)N[C@@H]([C@@H](C)O)C(=O)N[C@@H](C)C(=O)N[C@@H]([C@@H](C)O)C(=O)N1)[C@@H](C)O)C(=O)N[C@@H](CC(C)C)C(=O)N1CCC[C@H]1C(=O)N1CCC[C@H]1C(=O)N[C@H](C(=O)N[C@@H](CC(N)=O)C(=O)N[C@H](C(=O)NCC(=O)N[C@@H](CO)C(=O)N[C@@H](CC(N)=O)C(=O)N[C@H](C(=O)N[C@@H](Cc1ccc(O)cc1)C(N)=O)[C@@H](C)O)C(C)C)[C@@H](C)O) [N-alpha-[(S)-4-Carboxy-4-(19-carboxynonadecanoylamino)butyryl]-Glu-[Arg1,Glu14,His17]-pramlintide] | 0.119 | 0.184 | – | –
{C20 diacid-γGlu}-EKCNTATCATQRLAEFLHHSSNNFGPILPPTNVGSNTY-NH2 (disulfide 3-8; not fully specified; printed as N-alpha-[(S)-4-Carboxy-4-(19-carboxynonadecanoylamino)butyryl]-Glu-[Glu14,His17]-pramlintide) [N-alpha-[(S)-4-Carboxy-4-(19-carboxynonadecanoylamino)butyryl]-Glu-[Glu14,His17]-pramlintide] | 0.13 | 0.214 | 1.39 | 0.476
KCNTATCATQRLAEFLRHSSNNFGPILPPTNVGSNTP (N-alpha acylated: C20diacid-gGlu; disulfide Cys2-Cys7; C-terminal amide) [N-alpha-[(S)-4-Carboxy-4-(19-carboxynonadecanoylamino)butyryl]-[Glu14,Arg17,Pro37]-pramlintide] | – | – | 0.287 | 0.348
